The target in series [1] is Human Tau K18 2×VY (I278V/N279Y) (human) (UniProt P10636). In words: cell-based or functional assay.
In series [2] the target is Human Tau K18 2×IN (V308I/Y309N) (human) (UniProt P10636). Nature of the series: cell-based or functional assay.
Series [3] addresses Human Tau40 (residues 1-441) with a C-terminal His-tag (human, UniProt P10636 1-757). Nature of the series: cell-based or functional assay.
Series [4] concerns the molecule itself. Nature of the series: MicroED structure of nanocrystals; self-association. As for the experimental part: (§1) Nanocrystals of […] (SEQ ID NO: 12) synthetic peptide (purchased from Genscript) were prepared from 30 mg/ml stocks dissolved in water by the addition of 45 mM arachidonic acid to concentrated peptide. Subsequently crystals were grown in batch at 37° C. by the addition of 10 μl of precipitant (32% PEG10K in 100 mM phosphate citrate, pH 4.2) to 5 μl of protein. After 18 hours nanocrystals were resuspended by pipetting, spun down in an epitube and the resulting crystalline pellet was washed three times with water. Nanocrystals of VQIINK (SEQ ID NO: 11) peptide (purchased from Genscript) were grown by vapor diffusion from peptide at 15 mg/ml as a 1:2 drop ratio (protein:reservoir) from 0.29 M LiNO3, 24% (w/v) PEG 3350 at 18° C. and similarly harvested for data collection.
(§2) MicroED data were collected by spotting 2-3 μl of crystals onto TEM grids with carbon film support and plunge frozen in liquid ethane using a Vitrobot Mark IV (FEI). Diffraction images were collected on an FEI Tecnai F20 TEM at 200 kV as a continuous rotation tilt series at a rate of 0.2° per second with 2 second exposures per image. Diffraction data from several crystals were indexed, merged and scaled with XDS and XSCALE.²⁷ Molecular replacement was performed with Phaser²⁸ using a polyalanine search model composed of an ideal β-strand. The structure of VQIINK (SEQ ID NO: 11) was solved using a truncated version of […] […]

Series [5] deals with the molecule itself. In words: MicroED structure of fibril nanocrystals; self-association. As to the method: as §1, §2

Chain of Human Tau40 (residues 1-441) with a C-terminal His-tag (P10636 other isoform, or with tags, fused parts or gaps): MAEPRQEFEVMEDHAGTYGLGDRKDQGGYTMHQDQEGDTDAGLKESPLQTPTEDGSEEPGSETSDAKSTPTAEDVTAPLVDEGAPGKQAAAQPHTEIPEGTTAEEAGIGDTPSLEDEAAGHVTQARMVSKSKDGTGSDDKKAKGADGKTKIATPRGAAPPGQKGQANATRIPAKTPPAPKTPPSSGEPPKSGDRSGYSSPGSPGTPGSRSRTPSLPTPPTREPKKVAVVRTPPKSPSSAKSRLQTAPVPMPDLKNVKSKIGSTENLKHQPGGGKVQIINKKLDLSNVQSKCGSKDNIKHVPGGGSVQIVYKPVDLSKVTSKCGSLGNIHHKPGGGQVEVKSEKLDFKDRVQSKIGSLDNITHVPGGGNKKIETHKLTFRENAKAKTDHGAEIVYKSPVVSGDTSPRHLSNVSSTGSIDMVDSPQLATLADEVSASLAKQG

With “Human Tau K18 2×VY (I278V/N279Y) (from UniProt P10636 561-689)”, the ThT fluorescence, time to half maximum of fibril formation (50 µM, heparin, shaking, 37° C.) in series [1] was determined as 220 min. In series [2], “Human Tau K18 2×IN (V308I/Y309N) (from UniProt P10636 561-689)” displayed a ThT fluorescence, time to half maximum of fibril formation (50 µM, heparin, shaking, 37° C.) of 70 min. Take DVQWINKKRK [WINK inhibitor peptide]: the “IC50 of inhibition of seeding by pre-formed Tau40 fibers in biosensor cells” value (“IC50 of inhibition of seeding” for short) in series [3] was 25 µM. For DVQMINKKRK [MINK inhibitor peptide], the “IC50 of inhibition of seeding” value in series [3] stood at 22 µM.

Take DVWMINKKRK [W-MINK Phase 2 inhibitor peptide]: the “IC50 of inhibition of seeding” value in series [3] was determined as 9 µM.

Consider VQIINK [VQIINK peptide (six residue Tau segment)], for which the binding result in series [4] was “binds”.

B1: KVQIINKKLD synthetic peptide (ten residue Tau segment) (peptide)
peptide: KVQIINKKLD
notes: The peptide corresponds to Tau40 residues 274-283; also called ten residue VQIINK segment
As for B1, the binding result in series [5] was “binds”.

These data come from patent US20200017563A1 (University of California, published 2020).
